Here are results for two substances from patent US20240317826A1, “COMPOSITIONS AND METHODS FOR TREATING AND/OR I[…] AGENT FOR TREATING HIV-1 INFECTIONS” (priority 2021, published 2024).

The target of one assay is T1, IN-TAR RNA interaction (Human immunodeficiency virus type 1 group M subtype B, UniProt P04585).
T1 construct: made in house; host or cells: bacteria (E. coli inferred from the pGEX vector)
Nature of the assay: Alpha interaction assay: effect of stapled peptides on IN-TAR RNA interaction. The note with it: in vitro. Type of assay: binding, HIV-1. As for the experimental part: (§1) FIG. 8A-FIG. 8D show quantitative alpha interaction assay to determine the effect of stapled peptides on the interaction of IN and IN-CTD with INI1 and INI1183-304 or TAR RNA. […] Fixed concentrations of GST-IN, 6His-INI1, and TAR RNA were incubated with increasing concentration of stapled peptides and the interaction was detected as Alpha Score. The IC50 values were determined by fitting the data to a four-parameter dose-response curve using Graph Pad prism. All the graphs represent the average of three independent experiments (Mean+/−SEM).
(§2) AlphaScreen proximity assay to detect the protein-protein and protein-RNA interactions. AlphaScreen assay was carried out using PerkinElmer Alpha-Lisa-6His Acceptor beads (Catalogue #AL128C), Alpha-Screen-GST donor beads (Catalogue #6765300), GST-tagged and His-tagged proteins for protein-protein interactions; and Alpha-Screen Streptavidin donor beads (Catalogue #6760002 S), Alpha-Lisa-GST acceptor beads (Catalogue #AL110C), Biotin-labeled RNA and GST-tagged proteins for protein-RNA interactions. The reaction was carried out according to the manufacturer's protocol in a reaction buffer contacting (25 mM HEPES pH 7.4, 100 mM NaCl (or 500 mM NaCl), 1 mM DTT, 1 mM MgCl2 and BSA 1 mg ml/ml). The mixture of proteins or protein and RNA were incubated for 1 hr at room temperate with shaking in a multi micro-plate shaker and then 20 ag ml/ml accepter beads were added and incubated for additional 1 h with shaking. Finally, 20 ag ml^−1 of donor beads were added and further incubated for 1 hr. The Alpha score readings were measured using Alpha-compatible Envision 2105 multi-plate reader (Perkin-Elmer). All the experiments related to this method were carried out 3 to 5 times and data were analyzed by using Graph Pad Prism 9 version 9.0.0 (GraphPad Software, CA). The RNA sequences used in this assay are listed in the Table 6d and were obtained from Integrated DNA technology.
(§3) These peptides were tested for their ability to disrupt the interaction between IN-INI1 and IN-TAR RNA in vitro.

A further assay addresses T2, IN-INI1 interaction (Human immunodeficiency virus type 1 group M subtype B, UniProt P04585).
T2 construct: made in house; host or cells: bacteria (E. coli inferred from the pGEX vector)
Nature of the assay: Alpha interaction assay: effect of stapled peptides on IN-INI1 interaction. The assay is classed as binding, HIV-1. The note with it: in vitro. As to the method:
as §1, §2, §3

Where no end group is shown, it is not given here.

For “lys-Leu-Met-Thr-Pro-Glu-Met-Phe-Ser-Glu-Ile-Leu-Cys-Asp-Leu-Asn (KLMTPEMFSEILCDLN; not fully specified; printed as lys-Leu-Met-Thr-Pro-Glu-Met-Phe-Ser-Glu-Ile-Leu-Cys-Asp-Leu-Asn) [SP80, Linear peptide (without stapling) derived from Alpha helix 1 of INI1 Rpt-1 domain]”, the “inhibition of IN-TAR RNA interactions” value with IN-TAR RNA interaction is “did not inhibit”. The “inhibition of IN-INI1 interactions” value with IN-INI1 interaction is on record as “did not inhibit”.
Take “lys-Leu-Met-Thr-Pro-Glu-R8-Met-Phe-Glu-Ile-Leu-S5-Cys-Asp-Leu-Asn [SP39]”: on IN-TAR RNA interaction, the “IC50, inhibition of IN-TAR RNA interactions” value was “low nanomolar”. For the same substance, the “IC50, inhibition of IN-INI1 interactions” value at IN-INI1 interaction is on record as “low nanomolar”.
